Data set [1] concerns the molecule itself. The data set can be described thus: MST; apparent; RED-NHS labelled FL-RAD52 constant at 10 nM, unlabelled FL-RAD52 0.7 nM-25 μM; 25 °C; 25 mM Hepes pH 7.5, 5% glycerol, 250 mM NaCl, 0.05% Tween 20; step of self-association not stated.
In another data set the target is T1, FL-RAD52 (Homo sapiens, UniProt P43351 1-418).
T1 sequence: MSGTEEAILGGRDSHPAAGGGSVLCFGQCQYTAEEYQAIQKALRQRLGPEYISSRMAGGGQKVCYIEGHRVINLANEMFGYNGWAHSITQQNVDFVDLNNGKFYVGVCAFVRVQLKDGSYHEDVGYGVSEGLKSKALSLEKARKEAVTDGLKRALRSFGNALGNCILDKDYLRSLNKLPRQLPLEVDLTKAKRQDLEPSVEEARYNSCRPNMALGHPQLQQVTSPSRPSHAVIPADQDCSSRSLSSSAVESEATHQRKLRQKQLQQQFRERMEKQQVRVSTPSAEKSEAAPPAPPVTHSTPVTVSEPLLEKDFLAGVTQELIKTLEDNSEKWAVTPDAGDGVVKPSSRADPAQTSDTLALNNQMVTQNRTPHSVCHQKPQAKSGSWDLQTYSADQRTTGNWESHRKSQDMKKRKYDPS
The experiment in a line: fluorescence polarization; apparent Kd; 10 nM DNA; FP: 25 mM Tris-HCl pH 7.5, 62.5 mM NaCl, 5% glycerol, 1 mM DTT, room temperature, 15 min. Particulars: protein: recombinant; tags: His-tag (pET15b); label: 5'-6-FAM; single strand.

B1: Human full-length RAD52 (FL-RAD52), 6xHis-tagged (natural protein, UniProt P43351 1-418, looked up)
chain: T1 sequence
notes: Human RAD52, full length, 418 amino acids (47 kDa); expression vector pET15b (Addgene, number not given); In the MST experiment the copy held at constant concentration was labelled with RED-NHS (amine dye NT-647-NHS); No tag cleavage is described; the SAXS deposit is named 'His-Tagged full-length'; also called DNA repair protein RAD52 homolog; source: E. coli BL21 (DE3) Rosetta pLysS, purified …
Take B1: the Kd in data set [1] was 13 µM.

B2: dT30 ssDNA (ssDNA)
DNA: TTTTTTTTTTTTTTTTTTTTTTTTTTTTTT
B2: the Kd with FL-RAD52 was 0.0372 ± 0.0004 µM.

The record behind these values is publication PMC11306251, “An integrative structural study of the human full-length RAD52 at 2.2 Å resolution” (Communications Biology, 2024).
